Measurements taken from patent publication US6861578B1, “Method for plant protection against insects or nematodes by transformation with a nucleic acid encoding equistatin” (Plant Research International B.V., priority 1997, dated 2005).

Columns and labels:
[1] = target: T1, papain (Carica papaya, UniProt P00784); experiment: Stoichiometry and inhibition constant of recombinant equistatin with papain (Z-Phe-Arg-pNA, microtiterplate); type: biochemical
T1 sequence (P00784 134-345): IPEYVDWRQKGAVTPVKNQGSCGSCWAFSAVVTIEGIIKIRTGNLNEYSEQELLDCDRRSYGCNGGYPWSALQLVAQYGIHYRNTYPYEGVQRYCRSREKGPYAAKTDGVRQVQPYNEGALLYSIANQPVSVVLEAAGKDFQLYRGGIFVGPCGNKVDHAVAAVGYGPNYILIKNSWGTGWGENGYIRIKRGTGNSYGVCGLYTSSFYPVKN
Description: In a microtiterplate 20 μl papain solution (a fresh solution of 1 mg/ml (Sigma) in MES buffer titrated with E-64 to determine the active fraction, usually 17%) is combined with 0-80 μl of known protein concentration. MES buffer (50 mM MES, pH 6.5; 0.6 mg/ml L-cysteine; 1 mg/ml BSA fraction V) is added to a final volume of 150 μl. The mixture is incubated for 30 min at room temperature and subsequently 50 μl of substrate solution (60 μl of 15 mg/ml Z-Phe-Arg-pNA dissolved in methanol is diluted in 940 μl MES buffer before use). The plate is immediately placed in the nicrotiterplate reader and measured at 405 nm. Readings up to an OD600 of 0.3 are linear. Rates of change are used to determine the activity with increasing amounts of inhibitor. Results are graphically represented and at stoichiometric concentrations the amount of dissociated complex is determined to determine the apparent equilibrium dissociation constant (Ki). […] The apparent equilibrium dissociation constant for papain was estimated to be 0.6 nM in agreement with the data published for the purified protein (Lenarcic et al. (1997) J. Biol. Chem. 272: 13899-13903.

[2] = tested on: leafminer proteases; experiment: Protease activity of adult leafminer fly extract, FITC-hemoglobin; type: biochemical, Liriomyza trifolii; settings: leafminer pH 3.5; equistatin purified from sea anemone
Description: (§1) Adult western flower thrips (Frankliniella occidentalis) and leafmirer flies (Liriomyza trifolii) adult were harvested from a culture maintained on chrysanthemum plants and complete thrips and flies were homogenized in extraction on buffer (200 mM β-alanine-HCl, pH 3.5) in a volume of 5 times the weight of the insects. The buffer pH was at the previously determined pH optimum of protease activity towards hemoglobin. Final instar Colorado potato beetle larvae maintained on potato plants as described in example 5 were checked for gut aspartic protease activity by preparing a total gut extract in pH 3 buffer which is optimal for Colorado potato beetle aspartic proteases (200 mM glycine, pH 3). Guts were homogenized in 100 μl buffer per gut. Third instar western corn rootworm larvae maintained on corn roots were used to remove the guts. Ten guts were homogenized in 100 μl water and spinned twice to remove insoluble material. Two types of buffers were used in the enzymatic assay. One with a pH presumably favoring cysteine proteases (50 mM MES, pH 6.5; 0.6 mg/ml L-cysteine) and one for detecting aspartic proteases (200 mM glycine, pH 3). Supernatants were stored at −20° C.
(§2) 2 μl gut extract was combined with 2 μl inhibitor (2 mM pepstatin in methanol, 4 mM E64 in water, 2 mg/ml recombinant equistatin in water. The concentration of the other proteinaceous inhibitors was not known exactly). Appropriate buffers were added to a final volume of 100 μl. After 15′ preincubation 20 μl substrate (5 mg/ml FITC-hemoglobin) was added and incubated for 30-45 min at 37 C.
(§3) Reaction was stopped by the addition of 100 μl 10% TCA. Tubes were centrifuged and 100 μl supernatant mixed with 100 μl 10 N NaOH was measured on a fluorimeter for the extent of hemoglobin hydrolysis. Measurements were done in duplicate on one (thrips, leafminer and western corn rootworm), or three (Colorado potato beetle) different gut extracts and varied by a maximum of +/−5%.

[3] = tested on: western corn rootworm cysteine and aspartic protease activity; experiment: Protease activity of western corn rootworm larval gut extract, FITC-hemoglobin; type: biochemical, Diabrotica virgifera; set-up: inhibition of protease activity: concentration or dose not given beside the values; settings: for residual protease activity: recombinant equistatin; for inhibition of protease activity: western corn rootworm
Description: as §1, §2, §3

[4] = tested on: thrips protease activity; experiment: Protease activity of adult western flower thrips extract, FITC-hemoglobin; type: biochemical, Frankliniella occidentalis; set-up: inhibition of protease activity: concentration or dose not given beside the values
Description: as §1, §2, §3

[5] = tested on: Colorado potato beetle larval gut extracts (potato protease inhibitor-insensitive cysteine proteases); experiment: General proteolytic activity of Colorado potato beetle larval gut extracts, azocasein; type: biochemical, Leptinotarsa decemlineata
Excerpt: (§4) Guts of final instar Colorado potato beetle larvae reared on methyl jasmonate induced plants were isolated and extracted essentially as described (Bolter and Jongsma, J. Insect Physiol. 41: 1071-1078). In these gut extracts the proteases that are sensitive to the protease inhibitors of potato are already complexed. The residual protease activity is composed of potato protease-inhibitor-insensitive proteases which were induced in response to the methyl jasmonate induced potato inhibitors. These proteases are the proteases that render the beetle larvae insensitive to protease inhibitor defense of the potato plant. Wle tested a broad range of different cysteisie protease inhibitors for activity specifically against these induced potato protease inhibitor-insensitive cysteine protesses. Nearly all of these inhibitors were purified at the Jozef Stefan Institute in Slovenia. Testing their potential against Colorado potato beetle was done using both general protein substrates (azocasein, table 2) as well as specific synthetic substrates (L-Arg-pNA, table 3; pGlu-Phe-Leu-pNA, table 4; Z-Phe-Arg-pNA, table 5; Z-Arg-Arg-pNA, table 6). In specific cases inhibitors were tested at two concentrations, eauimolar and in excess to the protease, in order to obtain an indication of the tightness of the complex. […] Importantly, this class of inhibitors was capable of inhibiting nearly all general cysteine protease activity. The equistatin peptide molecule and a functional derivative thereof were not very active against the aminopeptidase-like cysteine protease activity. […] The best combination of inhibitors for full toxicity against the Colorado potato beetle would therefore be a combination of equistatin or p41 invariant chain fragment and stefin-like inhibitors.

[6] = target: T1, papain; experiment: Kinetic analysis of papain inactivation (continuous rate assay); type: biochemical
[7] = tested on: endoprotease activity of Colorado potato beetle larval gut extracts; experiment: Broad spectrum endoprotease activity of Colorado potato beetle gut extract, Z-Phe-Arg-pNA; type: biochemical, Leptinotarsa decemlineata
Excerpt: as §4

[8] = tested on: thrips females; experiment: Oviposition rate of thrips females in Murai cages; type: in vivo, Frankliniella occidentalis
Description: A sample of 142 μM recombinant equistatin purified as described in example 4 was assayed for activity towards thrips. Sample was acidified with HCl to pH 3 to stabilize the equistatin protein. Controls contained acidified water or 2.5 mg/ml BSA dissolved in acidified water. The oviposition rate of thrips females was assayed using so-called Murai cages. Briefly, perspex tubes closed on side with a fine gauze were inoculated with 10 females and bee pollen. Tubes were closed with parafilm and 300 μl fluid was placed on top of the parafilm. A second layer of parafilm enclosed the fluid. Pollen and sample fluid were replaced every day for two days. Eggs deposited in the liquid sample were counted on day 2.

B1: equistatin: cysteine/aspartic protease inhibitor from sea anemone Actinia equina with three type I repeated thyroglobulin domains; purified or recombinant from E. coli (protein)
chain: SLTKCQQLQASANSGLIGTYVPQCKETGEFEEKQCWGSTGYCWCVDEDGKEILGTKIRGSPDCSRRKAALTLCQMMQAIIVNVPGWCGPPSCKADGSFDEVQCCASNGECYCVDKKGKELEGTRQQGRPTCERHLSECEEARIKAHSNSLRVEMFVPECLEDGSYNPVQCWPSTGYCWCVDEGGVKVPGSDVRFKRPTC
modifications: left off: large carriers; small tags and cut ends
notes: purified or recombinant from E. coli
molecules of papain inhibited by one molecule of equistatin [1]: approximately 1 molecule
residual protease activity [2]: 24%
residual protease activity ([3]; western corn rootworm pH 3): 2%
residual protease activity ([3]; western corn rootworm pH 6.5): 7%
inhibition of protease activity ([3]; pH 3): 98%
inhibition of protease activity ([3]; pH 6.5): 93%
residual protease activity ([4]; thrips pH 3.5, equistatin purified from sea anemone): 5%
inhibition of protease activity ([4]; thrips, pH 3.5): 95%
Residual activity in excess of inhibitor [5]: 10%
Ki ([6]; Ki calculated from the ratio kd/ka): 0.57 ± 0.04 nM
10^4 × kd ([6]; continuous rate assay, printed value is 10^4 × kd): 65 ± 1.5 s^−1
10^−6 × ka ([6]; continuous rate assay, printed value is 10^−6 × ka): 12 ± 0.6 M^−1 s^−1
% of residual activity, equimolar ([7]; equimolar): 30%
% of residual activity, excess inhibitor ([7]; excess inhibitor): 20%
Oviposition rate, eggs per female per day ([8]; 142 μM recombinant equistatin, pH 3, eggs counted on day 2): 0.3 eggs per female per day
Oviposition rate, relative percentage ([8]; relative to BSA diet = 100%): 17%
